The record followed here is PMC5356828.

The target of assay [1] is P-glycoprotein (human (endogenous in primary skin fibroblasts)) (UniProt P08183). Nature of the assay: co-IP; lysates of hypertrophic scar fibroblasts (HF) treated with latrunculin-A (0.2 μM) or DMSO for 12 h; IP with anti-P-glycoprotein or anti-MRP1 antibody, immunoblot for actin.
Assay [2] has as its target multidrug resistance-associated protein 1 (human (endogenous in primary skin fibroblasts)) (UniProt P33527). The assay is described as above.

As for “actin (from UniProt P60709 1-375) (natural protein)”, the results for the percent loss of the co-precipitate after latrunculin-A in assay [1] and in assay [2] were 90% and 70%, respectively.
